Results as given in patent publication US20150065440A1, “SULFATED OLIGOSACCHARIDE DERIVATIVES” (Progen Pharmaceuticals Limited, priority 2007, published 2015).

Substrate: CO[C@H]1O[C@H](COS(=O)(=O)O)[C@@H](O[C@@H]2O[C@@H](C(=O)O)[C@@H](O[C@H]3O[C@H](COS(=O)(=O)O)[C@@H](O[C@@H]4O[C@H](C(=O)O)[C@@H](O[C@H]5O[C@H](COS(=O)(=O)O)[C@@H](O)[C@H](O)[C@H]5NS(=O)(=O)O)[C@H](O)[C@H]4O)[C@H](OS(=O)(=O)O)[C@H]3NS(=O)(=O)O)[C@H](O)[C@H]2OS(=O)(=O)O)[C@H](O)[C@H]1NS(=O)(=O)O
Assay: purified protein, by the assay type
Settings: other: substrate of heparanase; pH 5.0

B1: recombinant human heparanase (Homo sapiens) (protein)
chain 1: KKFKNSTYSRSSVDVLYTFANCSGLDLIFGLNALLRTADLQWNSSNAQLLLDYCSSKGYNISWELGNEPNSFLKKADIFINGSQLGEDFIQLHKLLRKSTFKNAKLYGPDVGQPRRKTAKMLKSFLKAGGEVIDSVTWHHYYLNGRTATKEDFLNPDVLDIFISSVQKVFQVVESTRPGKKVWLGETSSAYGGGAPLLSDTFAAGFMWLDKLGLSARMGIEVVMRQVFFGAGNYHLVDENFDPLPDYWLSLLFKKLVGTKVLMASVQGSKRRKLRVYLHCTNTDNPRYKEGDLTLYAINLHNVTKYLRLPYPFSNKQVDKYLLRPLGPHGLLSKSVQLNGLTLKMVDDQTLPPLMEKPLRPGSSLGLPAFSYSFFVIRNAKVAACI
chain 2: QDVVDLDFFTQEPLHLVSPSFLSVTIDANLATDPRFLILLGSPKLRTLARGLSPAYLRFGGTKTDFLIFDPKKE
  Km: 33 ± 6 µM
